Experimental data: the supplement of paper PMC10065799, “High-throughput profiling of sequence recognition by tyrosine kinases and SH2 domains using bacterial peptide display” (eLife, 2023)

What was measured:
[1] = tested on: AncSZ; assay: phosphorylation enrichment, bacterial display (enrichment ratio); higher = better substrate or ligand; peptides without Tyr show the background
[2] = biological target: EPHB1 (UniProt P54762); assay: as above
[3] = biological target: EPHB2 (UniProt P29323); assay: as above
Sequence of EPHB2 (P29323 whole entry, looked up): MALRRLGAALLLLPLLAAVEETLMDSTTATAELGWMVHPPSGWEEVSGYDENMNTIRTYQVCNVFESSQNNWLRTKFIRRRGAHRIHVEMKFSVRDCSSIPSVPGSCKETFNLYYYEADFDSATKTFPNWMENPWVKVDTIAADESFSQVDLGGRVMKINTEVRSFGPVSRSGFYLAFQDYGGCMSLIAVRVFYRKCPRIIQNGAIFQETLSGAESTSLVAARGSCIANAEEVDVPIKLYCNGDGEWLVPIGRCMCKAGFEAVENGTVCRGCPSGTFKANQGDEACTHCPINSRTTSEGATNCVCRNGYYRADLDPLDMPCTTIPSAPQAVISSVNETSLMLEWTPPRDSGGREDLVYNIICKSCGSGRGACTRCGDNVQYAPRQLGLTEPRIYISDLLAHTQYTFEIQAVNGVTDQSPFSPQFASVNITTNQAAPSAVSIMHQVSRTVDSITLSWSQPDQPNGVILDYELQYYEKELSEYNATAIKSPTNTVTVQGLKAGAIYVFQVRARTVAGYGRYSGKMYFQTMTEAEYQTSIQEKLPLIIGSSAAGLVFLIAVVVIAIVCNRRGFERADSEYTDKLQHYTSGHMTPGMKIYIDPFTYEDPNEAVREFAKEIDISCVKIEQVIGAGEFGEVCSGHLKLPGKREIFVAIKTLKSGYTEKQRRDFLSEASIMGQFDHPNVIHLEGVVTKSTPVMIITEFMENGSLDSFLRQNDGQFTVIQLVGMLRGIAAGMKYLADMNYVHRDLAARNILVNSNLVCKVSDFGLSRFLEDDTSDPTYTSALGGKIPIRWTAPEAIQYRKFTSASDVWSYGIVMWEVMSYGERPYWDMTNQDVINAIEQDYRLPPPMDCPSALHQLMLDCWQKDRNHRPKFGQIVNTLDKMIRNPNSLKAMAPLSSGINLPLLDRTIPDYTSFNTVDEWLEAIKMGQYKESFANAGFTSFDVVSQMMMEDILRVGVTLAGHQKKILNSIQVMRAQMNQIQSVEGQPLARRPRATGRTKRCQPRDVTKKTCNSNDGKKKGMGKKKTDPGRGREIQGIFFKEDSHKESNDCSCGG

[4] = biological target: FGFR1 (UniProt P11362); assay: as above
Sequence of FGFR1 (P11362 whole entry, looked up): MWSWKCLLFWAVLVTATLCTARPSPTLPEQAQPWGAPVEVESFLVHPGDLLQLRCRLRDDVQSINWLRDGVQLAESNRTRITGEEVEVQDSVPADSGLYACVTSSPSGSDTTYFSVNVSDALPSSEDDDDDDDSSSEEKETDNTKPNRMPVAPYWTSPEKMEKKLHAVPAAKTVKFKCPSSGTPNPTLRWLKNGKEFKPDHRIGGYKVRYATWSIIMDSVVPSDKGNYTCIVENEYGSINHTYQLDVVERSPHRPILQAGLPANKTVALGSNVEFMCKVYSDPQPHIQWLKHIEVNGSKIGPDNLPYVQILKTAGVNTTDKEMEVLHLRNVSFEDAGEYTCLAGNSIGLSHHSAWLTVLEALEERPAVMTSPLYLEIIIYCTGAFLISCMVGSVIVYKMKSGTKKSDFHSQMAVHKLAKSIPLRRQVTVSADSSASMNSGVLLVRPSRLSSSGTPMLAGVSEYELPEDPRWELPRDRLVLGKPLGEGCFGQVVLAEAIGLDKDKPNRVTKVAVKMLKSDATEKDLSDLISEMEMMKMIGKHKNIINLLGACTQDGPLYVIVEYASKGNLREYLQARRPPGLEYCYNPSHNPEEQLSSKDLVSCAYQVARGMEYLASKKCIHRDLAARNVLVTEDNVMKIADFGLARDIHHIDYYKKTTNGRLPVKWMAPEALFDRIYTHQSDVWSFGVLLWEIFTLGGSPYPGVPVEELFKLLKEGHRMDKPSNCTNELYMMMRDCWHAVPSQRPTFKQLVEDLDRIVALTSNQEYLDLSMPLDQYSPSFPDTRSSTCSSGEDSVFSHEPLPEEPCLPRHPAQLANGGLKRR

[5] = biological target: FGFR3 (UniProt P22607); assay: as above
[6] = tested on: Fer (mouse); assay: as above
[7] = biological target: Fes (UniProt P07332); assay: as above
[8] = biological target: Fyn (UniProt P06241); assay: as above
Sequence of Fyn (P06241 whole entry, looked up): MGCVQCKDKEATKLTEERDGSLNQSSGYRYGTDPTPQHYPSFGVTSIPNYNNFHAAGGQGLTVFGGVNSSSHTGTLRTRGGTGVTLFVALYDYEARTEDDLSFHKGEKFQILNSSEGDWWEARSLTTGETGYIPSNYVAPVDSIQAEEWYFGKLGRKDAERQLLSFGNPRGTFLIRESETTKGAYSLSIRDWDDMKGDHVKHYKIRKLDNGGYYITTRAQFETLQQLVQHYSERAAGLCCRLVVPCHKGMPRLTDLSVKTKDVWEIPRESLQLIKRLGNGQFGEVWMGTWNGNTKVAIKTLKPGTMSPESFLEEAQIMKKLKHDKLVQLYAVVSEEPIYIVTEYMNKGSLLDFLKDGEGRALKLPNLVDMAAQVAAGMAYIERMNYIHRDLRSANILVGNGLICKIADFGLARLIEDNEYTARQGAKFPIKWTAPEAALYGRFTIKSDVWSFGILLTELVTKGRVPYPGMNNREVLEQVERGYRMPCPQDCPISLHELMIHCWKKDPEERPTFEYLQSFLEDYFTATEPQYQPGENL

[9] = biological target: Hck (UniProt P08631); assay: as above
[10] = biological target: Jak2 (UniProt O60674); assay: as above
Sequence of Jak2 (O60674 whole entry, looked up): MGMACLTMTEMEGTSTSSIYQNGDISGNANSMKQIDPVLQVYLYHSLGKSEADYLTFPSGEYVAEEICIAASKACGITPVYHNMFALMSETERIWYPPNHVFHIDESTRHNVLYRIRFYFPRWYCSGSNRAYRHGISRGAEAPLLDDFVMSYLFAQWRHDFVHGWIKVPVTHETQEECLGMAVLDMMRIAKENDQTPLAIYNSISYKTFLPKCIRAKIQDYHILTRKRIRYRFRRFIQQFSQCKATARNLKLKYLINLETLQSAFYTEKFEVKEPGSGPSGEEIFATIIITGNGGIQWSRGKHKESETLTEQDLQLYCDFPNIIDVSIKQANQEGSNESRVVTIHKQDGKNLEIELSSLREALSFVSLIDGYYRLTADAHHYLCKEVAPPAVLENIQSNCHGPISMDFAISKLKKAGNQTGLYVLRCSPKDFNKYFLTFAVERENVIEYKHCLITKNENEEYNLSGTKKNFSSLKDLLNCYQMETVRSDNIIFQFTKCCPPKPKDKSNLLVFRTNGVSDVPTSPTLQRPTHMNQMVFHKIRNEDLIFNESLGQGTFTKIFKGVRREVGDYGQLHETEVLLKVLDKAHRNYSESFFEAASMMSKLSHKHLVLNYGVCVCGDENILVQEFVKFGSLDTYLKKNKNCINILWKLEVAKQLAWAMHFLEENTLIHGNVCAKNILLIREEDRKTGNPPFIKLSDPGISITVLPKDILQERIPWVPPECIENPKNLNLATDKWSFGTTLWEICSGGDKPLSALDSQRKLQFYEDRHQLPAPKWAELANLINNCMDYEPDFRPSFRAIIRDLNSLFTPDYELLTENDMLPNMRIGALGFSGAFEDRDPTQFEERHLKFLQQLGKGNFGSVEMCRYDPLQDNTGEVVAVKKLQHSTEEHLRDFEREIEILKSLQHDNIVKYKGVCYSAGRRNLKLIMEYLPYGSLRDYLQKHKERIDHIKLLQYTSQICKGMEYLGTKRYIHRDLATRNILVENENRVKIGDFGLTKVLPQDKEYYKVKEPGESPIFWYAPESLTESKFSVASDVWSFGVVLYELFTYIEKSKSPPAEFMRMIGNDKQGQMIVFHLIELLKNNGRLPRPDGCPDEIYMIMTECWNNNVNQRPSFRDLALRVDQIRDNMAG

[11] = biological target: MERTK (UniProt Q12866); assay: as above
Sequence of MERTK (Q12866 whole entry, looked up): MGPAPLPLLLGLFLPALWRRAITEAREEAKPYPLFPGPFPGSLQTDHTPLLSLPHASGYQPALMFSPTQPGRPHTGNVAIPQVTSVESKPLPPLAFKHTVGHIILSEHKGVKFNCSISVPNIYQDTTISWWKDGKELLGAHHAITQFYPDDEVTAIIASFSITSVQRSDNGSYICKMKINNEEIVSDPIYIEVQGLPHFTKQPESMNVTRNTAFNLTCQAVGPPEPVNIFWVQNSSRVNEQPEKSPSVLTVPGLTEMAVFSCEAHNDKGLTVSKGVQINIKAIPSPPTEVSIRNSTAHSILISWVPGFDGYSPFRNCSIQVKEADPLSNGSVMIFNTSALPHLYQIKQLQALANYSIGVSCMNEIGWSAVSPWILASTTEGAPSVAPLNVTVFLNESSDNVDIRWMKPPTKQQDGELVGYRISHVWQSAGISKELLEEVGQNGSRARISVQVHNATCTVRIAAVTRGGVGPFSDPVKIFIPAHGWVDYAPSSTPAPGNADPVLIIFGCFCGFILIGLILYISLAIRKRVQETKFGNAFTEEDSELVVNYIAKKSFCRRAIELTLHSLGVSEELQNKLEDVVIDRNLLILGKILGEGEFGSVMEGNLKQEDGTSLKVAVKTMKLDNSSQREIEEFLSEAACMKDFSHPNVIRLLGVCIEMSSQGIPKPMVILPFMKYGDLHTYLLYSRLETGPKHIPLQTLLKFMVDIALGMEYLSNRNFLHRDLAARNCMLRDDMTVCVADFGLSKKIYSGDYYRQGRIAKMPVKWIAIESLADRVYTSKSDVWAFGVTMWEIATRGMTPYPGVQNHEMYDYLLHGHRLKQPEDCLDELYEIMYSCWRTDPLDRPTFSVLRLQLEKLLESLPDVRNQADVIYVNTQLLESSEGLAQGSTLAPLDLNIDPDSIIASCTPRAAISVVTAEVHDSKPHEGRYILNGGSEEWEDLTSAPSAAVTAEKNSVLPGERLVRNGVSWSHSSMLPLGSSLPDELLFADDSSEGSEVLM

[12] = tested on: c-Abl (mouse); assay: as above
[13] = tested on: c-Src; assay: as above
[14] = biological target: Grb2 SH2 (UniProt P62993); assay: SH2 binding enrichment of the phosphorylated peptide, bacterial display (enrichment ratio); higher = better substrate or ligand; peptides without Tyr show the background
Sequence of Grb2 SH2 (P62993 whole entry, looked up): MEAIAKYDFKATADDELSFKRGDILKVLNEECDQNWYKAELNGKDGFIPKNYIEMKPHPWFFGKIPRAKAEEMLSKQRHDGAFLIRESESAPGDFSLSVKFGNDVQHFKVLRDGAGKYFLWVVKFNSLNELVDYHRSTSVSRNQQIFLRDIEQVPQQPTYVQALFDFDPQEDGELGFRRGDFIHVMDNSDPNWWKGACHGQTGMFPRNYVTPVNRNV

[15] = biological target: SHP2-C SH2; assay: as above
[16] = biological target: c-Src SH2; assay: as above
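For SH2 binding enrichment of the phosphorylated peptide, bacterial display in this document: peptide library displayed on the E. coli surface as eCPX fusions, selected cells deep-sequenced, score is each peptide's frequency after selection divided by its frequency in the input.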
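For phosphorylation enrichment, bacterial display in this document: 11-residue human phosphosite peptides and single-mutation variants displayed on the E. coli surface, counted by deep sequencing, each peptide's frequency after selection divided by its frequency in the unselected input library; frequency after pTyr selection over input frequency; kinase dosed for 20-30% of maximal phosphorylation in three min.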

Sequence	phosphorylation enrichment [1]	phosphorylation enrichment [2]	phosphorylation enrichment [3]	phosphorylation enrichment [4]	phosphorylation enrichment [5]	phosphorylation enrichment [6]	phosphorylation enrichment [7]	phosphorylation enrichment [8]	phosphorylation enrichment [9]	phosphorylation enrichment [10]	phosphorylation enrichment [11]	phosphorylation enrichment [12]	phosphorylation enrichment [13]	SH2 binding enrichment [14]	SH2 binding enrichment [15]	SH2 binding enrichment [16]
NFRTIYVNANE [KCNH2_Y475_T474I]	0.659	0.543	0.5	0.417	0.529	0.428	0.775	0.423	0.525	0.717	0.367	0.509	0.44	19	8.36	3.07
NFYEYYVDDPP [GCHFR_Y48]	2.53	5.35	6.26	5.94	4.76	6.58	1.29	5.21	2.65	1.23	6.46	0.877	4.3	0.709	0.505	0.679
NGTVTYAIIAG [CDH23_Y1672_V1675I]	1.1	2.83	1.12	0.628	0.746	0.503	1.28	0.968	1.31	0.989	2.68	0.892	1.33	0.78	16.6	1.43
NHFKRYNLCAE [PTEN_Y68_I67R_YF]	0.638	0.384	0.565	0.456	0.471	0.419	0.668	0.459	0.449	0.59	0.485	0.678	0.538	0.949	0.618	0.644
NHYKIYNPCAE [PTEN_Y68_L70P]	0.714	0.437	0.48	0.485	0.573	0.382	0.834	0.508	0.55	0.569	0.427	0.607	0.424	0.752	0.761	0.427
NKKYHYRELPV [ERN2_Y860_H858Y]	0.456	0.361	0.278	0.316	0.345	0.32	0.502	0.296	0.29	0.379	0.28	0.515	0.32	1.17	1.12	1.06
NKVFTYIFIME [SCN4A_Y1074_D1069N]	1.28	0.685	0.613	0.507	0.857	0.589	1.71	0.46	0.509	1.46	0.419	0.99	0.487	0.745	0.765	0.342
NLVSEYQQFQD [TUBB3_Y422_D417N_YF]	1.17	0.739	0.624	0.545	0.745	0.556	1.14	0.574	0.535	1.08	0.429	0.88	0.698	0.74	0.673	0.64
NPSFNYEIVNQ [DYNC1H1_Y3379_R3384Q_YF]	1.43	3.9	1.44	0.763	0.847	1.12	1.47	0.524	0.602	1.13	0.492	0.586	0.408	0.78	0.579	0.724
NQSVRYDSSLK [ABCC8_Y1353_L1349Q]	0.523	0.484	0.491	0.341	0.456	0.57	0.601	0.461	0.429	0.556	0.423	0.487	0.433	0.675	0.609	0.404
NTGNYYDLYGG [PTPN11_Y63_D61N]	1.73	18.3	20.1	15.7	12.6	2.82	0.984	6.39	6.84	2.42	9.28	1.01	5.29	1.08	0.854	2.49
PADQAYSWYQH [NDST1_Y711_R709Q]	1.55	0.755	0.674	5.18	3.15	20.6	1.57	1.17	1.37	0.765	3.75	0.6	1.58	0.802	0.488	0.63
PELIDYGKLWK [ACTN1_Y193_R197W]	1.31	0.718	0.683	0.535	0.766	0.531	1.26	0.601	0.393	0.761	0.522	0.912	0.59	0.958	0.989	0.538
PELINYHQHFS [BTK_Y361_N365Y_YF]	0.508	0.723	0.44	0.591	0.799	0.366	0.869	0.547	0.513	0.869	0.401	0.711	0.38	0.895	0.934	0.557
PEVSGYCHYAD [TG_Y234_C237Y]	0.864	0.831	0.616	0.427	0.714	1.1	1.1	0.506	0.658	1.04	0.425	1.2	0.454	0.691	0.676	0.935
PFRFIYMAVQH [PTPN11_Y515_Q510P_YF]	1.09	0.741	0.737	0.463	0.726	0.563	1.01	0.732	1.11	1.18	0.527	1.27	1.26	1.02	1.02	0.872
